The chains are these.
B1: PR302341 (antibody, human IgG1, kappa, V domains shown)
VH: EVQLQQSGPELVKPGASVKMSCKASGYTFTDYFMKWVKQSHGESLEWIGVINPNNGDIFYNQKFKGKATLTVDKSSSTAFMQLNSLTSEDSAVYSCARGTDRALFAYWGQGTLVAVSA
VL: DVLMTQTPLSLPVSLGDQASISCRSGQSIVHSDGNTYLEWYLQRPGQSPRLLIYKVSNRFSGVPDRFSGSGSGTDFTLKISRVGAEDLGIYYCFQGSHIPWTFGGGTKLEVKR
notes: Series 10; mouse variable domains with human IgG1 wildtype Fc
B2: PR006149 (antibody, human IgG1, kappa, V domains shown)
VH: EVQLVESGGVLVQPGGSLRLSCAASGFTFSSYWMTWVRQAPGKGLEWVANIKQDASEKYYVDSVKGRFTISRDNAKNSLFLQMNSLRAEDTAVYYCARTLIFDYWGQGTLVTVSS
VL: DIVMTQSPLSLPVTPGEPASISCRSSQSLLHSTGYSSLEWYLQKPGQSPQLLIYLGSNRASGVPDRFSGSGSGTDFTLKISRVEAEDVGIYYCMQTLQTPITFGQGTRLEIKR
notes: PTM-removal variant of PR004290
B3: PR006152 (antibody, human IgG1, kappa, V domains shown)
VH: B2 VH with A55S
VL: B2 VL with S36N, S37P
notes: as for B2
B4: PR006150 (antibody, human IgG1, kappa, V domains shown)
VH: B2 VH with A55S
VL: B2 VL with S36D
notes: as for B2
B5: PR006153 (antibody, human IgG1, kappa, V domains shown)
VH: B2 VH with A55S
VL: B2 VL
notes: as for B2
B6: PR006151 (antibody, human IgG1, kappa, V domains shown)
VH: B2 VH with A55S
VL: B2 VL with S36H
notes: as for B2
B7: PR302064 (antibody, human IgG1, kappa, V domains shown)
VH: EMQLVESGGGLVKPGGSLRLSCAASGFTFSNYWMNWVRQAPGKGLEWVAEIRLKSNNYATHYAESVKGRFTISRDDSKSTVYLQMNSLKTEDTAVYYCTVGTLVYWGQGTLVTVSS
VL: DIVLTQSPDSLAVSLGERATINCRASQSVSTSTYNYMHWFQQKPGQPPKLLIKFASNLESGVPDRFSGSGSGTDFTLTISSLQAEDTAVYYCQHSWEIPYTFGQGTKLEIKR
notes: Humanized variant of PR301777; human IgG1-WT-Fc
B8: PR303394 (antibody, human IgG1, kappa, V domains shown)
VH: EVQLQQSGPELVKPGVSMKISCKASGYSFTDSTMNWVKQSHGKNLEWIGLIHPDNGGTIYNQKFKGKATLTVHKSSSTAYMELLSLTSEDSAVYYCANGFAYWGQGTLVTVSA
VL: DVVMTQTPLSLPVSLGDQASISCRSSQSLLHSNGNTYLHWYLQKPGQSPELLIYKVSNRFSGVPDRFSGSGSGTDFTLKISRVEAEDLGVYFCSQSTHVPLTFGAGTKLELKR
notes: also called analog of CTRND05
B9: PR302341-34 (antibody, human IgG1, kappa, V domains shown)
VH: QVQLVQSGAEVKKPGASVKVSCKASGYTFTDYFMKWVRQAPGQGLEWMGVINPNQGDIFYNQKFKGRVTMTVDKSISTAYMELSRLRSDDTAVYYCARGTDRALFAYWGQGTLVTVSS
VL: DVVMTQSPLSLPVTLGQPASISCRSGQSIVHSDANTYLEWYQQRPGQSPRLLIYKVSNRFSGVPDRFSGSGSGTDFTLKISRVEAEDLGVYYCFQGSHIPWTFGGGTKVEIKR
notes: Humanized, PTM-removed variant of PR302341
B10: PR302309-8 (antibody, human IgG1, kappa, V domains shown)
VH: QIQLVQSGSELKKPGASVKVSCKASGYTFTNYGMNWVRQAPGQGLEWMGWINTYTGEPIYTDDFKGRFVFSLDTSVSTAYLQISSLKAEDTAVYYCSRSTMITTGGVFAYWGQGTLVTVSS
VL: B9 VL with G26S, S28T, A34G, I99V
notes: Humanized variant of PR302309
B11: PR302341-48 (antibody, human IgG1, kappa, V domains shown)
VH: B9 VH with I76T, R85S, D89E
VL: B9 VL with S7T, L11S, S48P, S72A
notes: as for B9
B12: PR302341-28 (antibody, human IgG1, kappa, V domains shown)
VH: B9 VH
VL: B9 VL with A34G
notes: as for B9
B13: PR302341-60 (antibody, human IgG1, kappa, V domains shown)
VH: B9 VH with G44R, M70I, V72R, K74T, I76A, R85S, D89E
VL: B9 VL
notes: as for B9
B14: PR302309-11 (antibody, human IgG1, kappa, V domains shown)
VH: B10 VH
VL: DIVMTQTPLSSPVTLGQPASISCRSSQTIVHSDGNTYLEWLQQRPGQPPRLLIYKVSNRFSGVPDRFSGSGAGTDFTLKISRVEAEDVGVYYCFQGSHVPWTFGGGTKVEIKR
notes: Humanized variant of PR302309
B15: PR004290 (antibody, human IgG1, kappa, V domains shown)
VH: B2 VH with A55G
VL: B2 VL with S36N
notes: Series 1; human IgG1 wildtype Fc; also called hybridoma clone 28b3
B16: PR005660 (antibody, human IgG1, kappa, V domains shown)
VH: B2 VH with D54E, A55G
VL: B2 VL with S36Q
notes: ΔPTM variant of PR004290

Positions count from the first letter of the chain named. Several values for one entry are separate records, joined by “and”; a condition that tells them apart may be missing. Identical values can stand only once.

In one test the target is T1, biotinylated CRH (human and mouse, not fully specified; biotinylated, position not stated).
T1 construct: also called Biotin-CRH; biotin-labeled CRH
T1 peptide: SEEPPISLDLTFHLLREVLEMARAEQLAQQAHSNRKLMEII
As to the kind of experiment: Octet BLI, biotinylated CRH on SA sensor. The procedure:
Octet® Red 96e was used for affinity measurement. Octet® running buffer was prepared by diluting kinetics buffer 10× (Fortebio, Cat #18-1105) in PBS according to the manufacturer's instructions. Two columns of SA sensors (Fortebio, Cat #18-5019) were hydrated in running buffer for 10 mins, one for ligand capturing and the other for reference. Antibodies were 2-fold diluted and added into a 96-well plate. […] After a 60-second baseline step, sensors were dipped into analyte and buffer wells successively, with the association and dissociation time of 180 seconds and 800 seconds, respectively. […] Signals of reference wells and reference sensors were subtracted by selecting “Double reference” before data fitting.
(In general: Biolayer interferometry detects binding as a change in optical thickness at a sensor tip.)
Regarding B1, the Kd (usually the equilibrium constant for the complex coming apart) was under 1 pM; the koff (usually the rate constant with which the complex falls apart) was 2.18e-07 s⁻¹; the kon – broadly, the rate constant with which the complex forms – is 1.01e+06 M⁻¹ s⁻¹.

In a further test the target is T2, human UCN1 peptide (human, UniProt P55089 83-122).
T2 peptide (looked up): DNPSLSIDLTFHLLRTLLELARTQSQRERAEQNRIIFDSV
In words: cell-based or functional assay.
For the molecule B1, the “CHO-CRE-hCRHR1 1 nM hUCH1 IC50” value worked out at 19000 pM and the “hUCN1 IC50/ CRH IC50” value amounted to 40 fold.

The next test has as its target T3, corticotropin-releasing hormone (CRH) peptide (human and mouse, not fully specified).
T3 peptide: T1 peptide
In words: cell-based or functional assay.
With B1, the “CHO-CRE-hCRHR1 0.5 nM CRH IC50” value is 503 pM and 437 pM.

Another test deals with T4, CRH (NT-Biotin) (human and mouse (same sequence), not fully specified; biotin at the N-terminus).
T4 peptide: T1 peptide
As to the kind of experiment: ELISA, biotinylated CRH on streptavidin plate. As for the experimental part:
(§1) Streptavidin (Thermo, Cat: 21125) was diluted in PBS to a concentration of 2 μg/ml. 100 μl of diluted streptavidin was added per well to ELISA microplates, and the plates were incubated overnight at 4° C. […] 100 μL of 3,3′,5,5′-tetramethylbenzidine (TMB) substrate (Biopanda, Cat: TMB-S-003) was added, and the plates were incubated at room temperature for 15 minutes. 100 μL of ELISA stopping solution (Solarbio, Cat #: C1058) was added to terminate the reaction, and the optical density at 450 nm (OD450 nm) was determined by an ELISA plate reader (Molecular Devices, Spectra max 384 plus).
For orientation: In an ELISA, binding on a coated surface is turned into a signal by an enzyme label.
For the molecule B2, the EC50 (usually the concentration that produces a half-maximal response) is 19 pM.

Consider B3, for which the EC50 was found to be 28 pM.

On to B4, for which a half-maximal effect (EC50) was put at 13 pM.

Take B5: a half-maximal response (EC50) required 19 pM.

For the molecule B6, the response was half-maximal at 30 pM (EC50).

The next test addresses T5, CRH (CT-Biotin) (human and mouse (same sequence), biotin on an added C-terminal K (CRH-K-Biotin)).
T5 construct: also called Peptide 4 (CRH-Biotin)
T5 peptide: T1 peptide
In words: ELISA, biotinylated CRH on streptavidin plate. As for the experimental part: as §1
In the case of B2, the EC50 is 27 pM.

The molecule B3 had an EC50 of 23 pM. The EC50 values of the last two molecules are within 1.5-fold of each other.

In turn, B4 yielded an EC50 of 16 pM.

B5: a half-maximal response (EC50) required 19 pM. The EC50 values of the last two molecules are within 1.5-fold of each other.

On to B6, for which the EC50 is 23 pM.

The target of a further test is T6, corticotropin-releasing hormone (CRH) peptide (human and mouse (same sequence), not fully specified).
T6 peptide: T1 peptide
As to the kind of experiment: cell-based or functional assay.
Consider B2, for which the “hCRHR1 Luciferase Reporter Assay IC50” value came out at 8040 pM and the “mCrhr1 Luciferase Reporter Assay IC50” value was 40100 pM.

As for B3, the “hCRHR1 Luciferase Reporter Assay IC50” value stood at 2190 pM and the “mCrhr1 Luciferase Reporter Assay IC50” value is 4400 pM.

Consider B4, for which the “hCRHR1 Luciferase Reporter Assay IC50” value was 5880 pM and the “mCrhr1 Luciferase Reporter Assay IC50” value came to 18300 pM.

As for B5, the “hCRHR1 Luciferase Reporter Assay IC50” value was 12400 pM and the “mCrhr1 Luciferase Reporter Assay IC50” value stood at 39500 pM.

On to B6, for which the “hCRHR1 Luciferase Reporter Assay IC50” value was 13600 pM and the “mCrhr1 Luciferase Reporter Assay IC50” value turned out to be 57600 pM.

The next test deals with T7, CRH (CT Biotin) (human and mouse, C-terminal K-Biotin).
T7 construct: also called Peptide 4 (CRH-Biotin)
T7 peptide: T1 peptide
As to the kind of experiment: ELISA, biotin peptide on streptavidin plate. The procedure: as §1
Molecule B1 came in with an EC50 of 17 pM.

In a further test the target is T8, CRH (NT Biotin) (human and mouse, not fully specified; biotin at the N-terminus).
T8 peptide: T1 peptide
In words: ELISA, biotin peptide on streptavidin plate. The procedure: as §1
Turning to B1, the EC50 was 23 pM. In other words, the picomolar range.

The target of another test is T9, human UCN3 peptide (human, UniProt Q969E3 120-157, not fully specified; biotin at N- or C-terminus in the ELISA).
T9 construct: also called hUCN3; hUCN3 (NT Biotin)
T9 peptide (looked up): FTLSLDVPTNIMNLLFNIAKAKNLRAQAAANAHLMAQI
In words: ELISA, biotinylated hUCN3 on streptavidin plates. As for the experimental part: (§2) Streptavidin (Thermo, Cat: 21125) was diluted in PBS with a concentration of 2 μg/mL. 100 μL of diluted streptavidin was added per well to ELISA microplates, and the plates were incubated overnight at 4° C. Plates were blocked with ELISA blocking solution (containing 2% w/v BSA, 0.05% (v/v) Tween-20, pH 7.4 PBS buffer) at 37° C. for 1 hour, and then incubated with either 1 μg/mL hUCN1 (NT Biotin), hUCN1 (CT Biotin), hUCN2 (NT Biotin), hUCN2 (CT Biotin), hUCN3 (NT Biotin), or hUCN3 (CT Biotin) for 1 hour at 37° C. […] 100 μl of TMB Substrate (Biopanda, Cat: TMB-S-003) was added, and the plates were incubated at room temperature for 15 minutes. 100 μL of ELISA stopping solution (Solarbio, Cat #: C1058) was then added to terminate the reaction, and the OD450 nm was determined by an ELISA plate reader (Molecular Devices, Spectra max 384 plus).
For the molecule B7, the binding result is reported as “no binding (tested: 100 nM)”.

For the molecule B8, the binding result is “no binding (tested: 100 nM)”.

With B9, the binding result is given as “no binding (tested: 100 nM)”.

Take B10: the binding result was “no binding (tested: 100 nM)”.

With B11, the binding result is recorded as “no binding (tested: 100 nM)”.

Turning to B12, the binding result is “no binding (tested: 100 nM)”.

Turning to B13, the binding result is given as “no binding (tested: 100 nM)”.

In the case of B14, the binding result is reported as “no binding (tested: 100 nM)”.

Turning to B15, the binding result is given as “no binding (tested: 100 nM)”.

Consider B16, for which the binding result is recorded as “no binding (tested: 100 nM)”.

A further test deals with T10, human UCN2 peptide (human, UniProt Q96RP3 72-109, limits assumed, not fully specified; biotin at N- or C-terminus in the ELISA).
T10 construct: also called hUCN2; hUCN2 (NT Biotin)
T10 peptide (looked up): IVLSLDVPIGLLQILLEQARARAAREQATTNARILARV
In words: ELISA, biotinylated hUCN2 on streptavidin plates. The procedure:
as §2
In the case of B7, the binding result is reported as “no binding (tested: 100 nM)”.

As to B8, the binding result is recorded as “no binding (tested: 100 nM)”.

With B9, the binding result is recorded as “no binding (tested: 100 nM)”.

On to B10, for which the binding result was “no binding (tested: 100 nM)”.

In the case of B11, the binding result was “no binding (tested: 100 nM)”.

For the molecule B12, the binding result is listed as “no binding (tested: 100 nM)”.

Regarding B13, the binding result is on record as “no binding (tested: 100 nM)”.

As for B14, the binding result is listed as “no binding (tested: 100 nM)”.

For the molecule B15, the binding result is reported as “no binding (tested: 100 nM)”.

Take B16: the binding result is reported as “no binding (tested: 100 nM)”.

The values are drawn from patent publication US20260042834A1 (HBM ALPHA THERAPEUTICS, published 2026).
